Laboratory results from publication PMC8153946, “Substrate Selectivity of Coumarin Derivatives by Human CYP1 Enzymes: In Vitro Enzyme Kinetics and In Silico Modeling” (ACS Omega, 2021).
Marks after values point to notes of the source that are not given here.

Tests used:
Type in all cases: biochemical, human
[1] = substrate: O=c1oc2ccccc2cc1-c1cccc(O)c1; test: Michaelis–Menten kinetics of oxidation to fluorescent 7-hydroxy metabolite by recombinant CYP1A2; conditions: other: recombinant CYP1A2, 100 mM Tris-HCl pH 7.4, 37 °C, 95% confidence interval in brackets
Experimental: (§1) Baculovirus-insect cell-expressed human CYP1A1, CYP1A2, CYP1B1, CYP2A6, CYP2B6, CYP2C8, CYP2C9, CYP2C19, CYP2D6, CYP2E1, CYP3A4, CYP3A5, and CYP3A7 were purchased from BD Biosciences Discovery Labware (Woburn, MA, USA) and used according to the manufacturer’s instructions.
(§2) The kinetic assays were carried out in 100 μL volume containing 100 mM Tris-HCl buffer pH 7.4, 0–40 μM coumarin derivative or 0–10 μM 7-ethoxyresorufin, 1–25 nM recombinant CYP or 0–0.1 g/L microsomal protein, and 20% NADPH regenerating system. Incubations took place at 37 °C in 96-multiwell plates; the fluorescence was measured with a Victor[2] plate reader (PerkinElmer Life Sciences, Turku, Finland). The detailed conditions are described in the figures and tables. The reaction was started by adding NADPH, and fluorescence was measured at 2 min intervals for 40 min using excitation at 405 nm and emission at 460 nm for oxidation of coumarin derivatives[18] and excitation at 570 nm and emission at 615 nm for ethoxyresorufin or pentoxyresorufin 7-O-dealkylations. Incubations without the substrate, enzyme, or NADPH were used as blank reactions. Resorufin was used as a standard, and 3-(4-fluorophenyl)-7-hydroxycoumarin was used as the surrogate standards to calculate the amount of product formed. The linear phase of the reactions was used for calculations.
(§3) Enzyme kinetic parameters were analyzed using the nonlinear Michaelis–Menten equation v = Vmax × S/(Km + S), in which v is the rate for 7-hydroxylation of a coumarin derivative, S is its concentration, and Vmax value is the limiting rate of the reaction of 7-hydroxylation, which reached a half-maximal rate at a concentration of Km for the substrate.

[2] = substrate: CCOc1ccc2nc3ccc(=O)cc-3oc2c1; test: as above; conditions: other: recombinant CYP1A2, 100 mM Tris-HCl pH 7.4, 37 °C, 95% confidence interval in brackets
Experimental: as §1, §2, §3

[3] = substrate: Cc1ccc2oc(=O)c(-c3ccc(F)cc3)cc2c1; test: as above; conditions: other: recombinant CYP1A2, 100 mM Tris-HCl pH 7.4, 37 °C, 95% confidence interval in brackets
Experimental: as §1, §2, §3

[4] = substrate: COc1ccc2oc(=O)c(-c3ccc(O)c(F)c3)cc2c1; test: as above; conditions: other: recombinant CYP1A2, 100 mM Tris-HCl pH 7.4, 37 °C, 95% confidence interval in brackets
Experimental: as §1, §2, §3

[5] = substrate: COc1ccc2oc(=O)c(-c3ccc(OC(F)(F)F)cc3)cc2c1; test: as above; conditions: other: recombinant CYP1A2, 100 mM Tris-HCl pH 7.4, 37 °C, 95% confidence interval in brackets
Experimental: as §1, §2, §3

[6] = substrate: CC(=O)Oc1ccc(-c2cc3cc(Cl)ccc3oc2=O)cc1; test: as above; conditions: other: recombinant CYP1A2, 100 mM Tris-HCl pH 7.4, 37 °C, 95% confidence interval in brackets
Experimental: as §1, §2, §3

[7] = substrate: COc1cccc(-c2cc3cc(OC)ccc3oc2=O)c1; test: as above; conditions: other: recombinant CYP1A2, 100 mM Tris-HCl pH 7.4, 37 °C, 95% confidence interval in brackets
Experimental: as §1, §2, §3

[8] = substrate: COc1ccc(-c2cc3cc(OC(C)=O)ccc3oc2=O)cc1; test: as above; conditions: other: recombinant CYP1A2, 100 mM Tris-HCl pH 7.4, 37 °C, 95% confidence interval in brackets
Experimental: as §1, §2, §3

[9] = substrate: O=c1oc2ccc(O)cc2cc1-c1cccc(O)c1; test: as above; conditions: other: recombinant CYP1A2, 100 mM Tris-HCl pH 7.4, 37 °C, 95% confidence interval in brackets
Experimental: as §1, §2, §3

[10] = substrate: COc1ccc2cc(-c3ccc(OC(F)(F)F)cc3)c(=O)oc2c1; test: as above; conditions: other: recombinant CYP1A2, 100 mM Tris-HCl pH 7.4, 37 °C, 95% confidence interval in brackets
Experimental: as §1, §2, §3

[11] = substrate: CCOc1ccc2nc3ccc(=O)cc-3oc2c1; test: Michaelis–Menten kinetics of oxidation to fluorescent 7-hydroxy metabolite by recombinant CYP1A1; conditions: other: recombinant CYP1A1, 100 mM Tris-HCl pH 7.4, 37 °C, 95% confidence interval in brackets
Experimental: as §1, §2, §3

[12] = substrate: CCOc1ccc2ccc(=O)oc2c1; test: as above; conditions: other: recombinant CYP1A1, 100 mM Tris-HCl pH 7.4, 37 °C, 95% confidence interval in brackets
Experimental: as §1, §2, §3

[13] = substrate: COc1ccc2oc(=O)c(-c3ccc(O)c(F)c3)cc2c1; test: as above; conditions: other: recombinant CYP1A1, 100 mM Tris-HCl pH 7.4, 37 °C, 95% confidence interval in brackets
Experimental: as §1, §2, §3

[14] = substrate: CCCCCOc1ccc2nc3ccc(=O)cc-3oc2c1; test: as above; conditions: other: recombinant CYP1A1, 100 mM Tris-HCl pH 7.4, 37 °C, 95% confidence interval in brackets
Experimental: as §1, §2, §3

[15] = substrate: COc1ccc2oc(=O)c(-c3ccc(OC(F)(F)F)cc3)cc2c1; test: as above; conditions: other: recombinant CYP1A1, 100 mM Tris-HCl pH 7.4, 37 °C, 95% confidence interval in brackets
Experimental: as §1, §2, §3

[16] = substrate: CC(=O)Oc1ccc(-c2cc3cc(Cl)ccc3oc2=O)cc1; test: as above; conditions: other: recombinant CYP1A1, 100 mM Tris-HCl pH 7.4, 37 °C, 95% confidence interval in brackets
Experimental: as §1, §2, §3

[17] = substrate: COc1cccc(-c2cc3cc(OC)ccc3oc2=O)c1; test: as above; conditions: other: recombinant CYP1A1, 100 mM Tris-HCl pH 7.4, 37 °C, 95% confidence interval in brackets
Experimental: as §1, §2, §3

[18] = substrate: COc1ccc(-c2cc3cc(OC(C)=O)ccc3oc2=O)cc1; test: as above; conditions: other: recombinant CYP1A1, 100 mM Tris-HCl pH 7.4, 37 °C, 95% confidence interval in brackets
Experimental: as §1, §2, §3

[19] = substrate: O=c1oc2ccc(O)cc2cc1-c1cccc(O)c1; test: as above; conditions: other: recombinant CYP1A1, 100 mM Tris-HCl pH 7.4, 37 °C, 95% confidence interval in brackets
Experimental: as §1, §2, §3

[20] = substrate: COc1ccc2cc(-c3ccc(OC(F)(F)F)cc3)c(=O)oc2c1; test: as above; conditions: other: recombinant CYP1A1, 100 mM Tris-HCl pH 7.4, 37 °C, 95% confidence interval in brackets
Experimental: as §1, §2, §3

B1: human CYP1A2 (Homo sapiens) (protein)
chain: MALSQSVPFSATELLLASAIFCLVFWVLKGLRPRVPKGLKSPPEPWGWPLLGHVLTLGKNPHLALSRMSQRYGDVLQIRIGSTPVLVLSRLDTIRQALVRQGDDFKGRPDLYTSTLITDGQSLTFSTDSGPVWAARRRLAQNALNTFSIASDPASSSSCYLEEHVSKEAKALISRLQELMAGPGHFDPYNQVVVSVANVIGAMCFGQHFPESSDEMLSLVKNTHEFVETASSGNPLDFFPILRYLPNPALQRFKAFNQRFLWFLQKTVQEHYQDFDKNSVRDITGALFKHSKKGPRASGNLIPQEKIVNLVNDIFGAGFDTVTTAISWSLMYLVTKPEIQRKIQKELDTVIGRERRPRLSDRPQLPYLEAFILETFRHSSFLPFTIPHSTTRDTTLNGFYIPKKCCVFVNQWQVNHDPELWEDPSEFRPERFLTADGTAINKPLSEKMMLFGMGKRRCIGEVLAKWEIFLFLAILLQQLEFSVPPGVKVDLTPIYGLTMKHARCEHVQARLRFSIN
notes: purchased BD Biosciences Discovery Labware (Woburn, MA, USA); host or cells: baculovirus-insect cells
- Km [1]: 47 (8–86) μM
- kcat [1]: 0.4 (0.19–0.6) mol/(min·mol CYP)
- Km [2]: 0.56 (0.44–0.68) μM
- kcat [2]: 3.2 (2.9–3.6) mol/(min·mol CYP)
- Km [3]: 7.6 (0.59–14.6) μM
- kcat [3]: 1 (0.63–1.38) mol/(min·mol CYP)
- Km [4]: 20.3 (0–53) μM
- kcat [4]: 6.0 (0–12.8) mol/(min·mol CYP)
- Km [5]: 0.96 (0.61–1.32) μM
- kcat [5]: 4.4 (4.1–4.8) mol/(min·mol CYP)
- Km [6]: 2 (1.2–2.7) μM
- kcat [6]: 1.2 (1.1–1.4) mol/(min·mol CYP)
- Km [7]: 0.27 (0.19–0.36) μM
- kcat [7]: 8.2 (7.6–8.9) mol/(min·mol CYP)
- Km [8]: 2.2 (1.6–2.8) μM
- kcat [8]: 8.7 (8–9.4) mol/(min·mol CYP)
- Km [9]: 2.4 (1.8–3.1) μM
- kcat [9]: 29.8 (27.5–32.2) mol/(min·mol CYP)
- Km [10]: 7.9 (5.1–10.6) μM
- kcat [10]: 9.1 (7.8–10.5) mol/(min·mol CYP)

B2: human CYP1A1 (Homo sapiens) (protein)
chain: MLFPISMSATEFLLASVIFCLVFWVIRASRPQVPKGLKNPPGPWGWPLIGHMLTLGKNPHLALSRMSQQYGDVLQIRIGSTPVVVLSGLDTIRQALVRQGDDFKGRPDLYTFTLISNGQSMSFSPDSGPVWAARRRLAQNGLKSFSIASDPASSTSCYLEEHVSKEAEVLISTLQELMAGPGHFNPYRYVVVSVTNVICAICFGRRYDHNHQELLSLVNLNNNFGEVVGSGNPADFIPILRYLPNPSLNAFKDLNEKFYSFMQKMVKEHYKTFEKGHIRDITDSLIEHCQEKQLDENANVQLSDEKIINIVLDLFGAGFDTVTTAISWSLMYLVMNPRVQRKIQEELDTVIGRSRRPRLSDRSHLPYMEAFILETFRHSSFVPFTIPHSTTRDTSLKGFYIPKGRCVFVNQWQINHDQKLWVNPSEFLPERFLTPDGAIDKVLSEKVIIFGMGKRKCIGETIARWEVFLFLAILLQRVEFSVPLGVKVDMTPIYGLTMKHACCEHFQMQLRS
notes: as for B1
- Km [11]: 0.054 (0.035–0.075) μM
- kcat [11]: 10.3 (9.3–11.4) mol/(min·mol CYP)
- Km [12]: 11.9 (0–25.1) μM
- kcat [12]: 26.2 (14.5–38) mol/(min·mol CYP)
- Km [13]: 10.7 (2.6–18.7) ^b μM
- kcat [13]: 32 (18–46) mol/(min·mol CYP)
- Km [14]: 0.74 (0.54–0.94) μM
- kcat [14]: 1.35 (1.19–1.50) mol/(min·mol CYP)
- Km [15]: 4.8 (2.6–6.9) μM
- kcat [15]: 12.6 (10.6–14.6) mol/(min·mol CYP)
- Km [16]: 0.41 (0.26–0.55) μM
- kcat [16]: 6.5 (5.9–7.1) mol/(min·mol CYP)
- Km [17]: 0.96 (0.4–1.52) μM
- kcat [17]: 24.2 (19.4–29) mol/(min·mol CYP)
- Km [18]: 1.04 (0.65–1.42) μM
- kcat [18]: 7.5 (7–8.1) mol/(min·mol CYP)
- Km [19]: 2.11 (0.17–4.1) μM
- kcat [19]: 4.0 (3.0–5.0) mol/(min·mol CYP)
- Km [20]: 9.7 (4.8–14.6) μM
- kcat [20]: 4.2 (3.3–5.1) mol/(min·mol CYP)
